The target of assay [1] is wild-type HMPV F protein (soluble, secreted, with C-terminal GCNt trimerization domain) (human metapneumovirus, B2 strain). In words: SPR; BiOptix 404pi; F proteins captured on NiHC1000m chip through their C-terminal His tag to 120 RU; Fab injected at 300 to 0.14 nM, 100 ul/min; 10 mM HEPES pH 7.2, 150 mM NaCl, 0.005% Tween 20, 50 uM EDTA; simple Langmuir model.
For assay [2] the target is unchanged. The experiment in a line: SEC; gel filtration of the purified F proteins alone (Superdex-200, 25 mM sodium phosphate pH 7.4, 100 mM NaCl).
In assay [3] the target is DS-7 Fab (anti-HMPV F neutralizing antibody). In words: SPR; as a1 (ProteOn, Fab immobilised, F injected, bivalent analyte model), but HMPV F proteins heated to 50°C for 30 minutes (post-fusion form).
The target is the same in assay [4]. In words: SPR; Bio-Rad ProteOn XPR36; biotinylated antibodies (Fabs) immobilised on NLC chip at 80-300 RU; unheated HMPV F injected at 500, 166.7, 55.5, 18.5, 6.2, 0 nM, 100 ul/min; 20 mM NaPO4 pH 7.4, 100 mM NaCl, 10 mM imidazole, 0.005% Tween 20; bivalent analyte model.
Assay [5] addresses wild-type HMPV F protein (soluble, secreted, with C-terminal GCNt trimerization domain) (human metapneumovirus, B2 strain). In words: negative-stain EM; purified F proteins on carbon-coated copper grids, 2% uranyl formate; unheated and heated to 50°C.

Regarding “DS-7 Fab (anti-HMPV F neutralizing antibody)”, in assay [1], the Kd was found to be 0.3 nM, the dissociation rate constant (koff) worked out at 0.000197 s⁻¹, the association rate constant (kon) came out at 684000 M⁻¹ s⁻¹ and the t1/2 turned out to be 59 min.
On to “wild-type HMPV F protein (soluble, secreted, with C-terminal GCNt trimerization domain) (natural protein)”, for which the stoichiometry N in assay [2] turned out to be 3. In addition, in assay [3], the Kd was 2.8 nM, the koff was 0.000258 s⁻¹, the kon stood at 95700 M⁻¹ s⁻¹ and the t1/2 was determined as 45 min. Further, in assay [4], the Kd turned out to be 0.83 nM, the koff was 0.00012 s⁻¹, the kon was determined as 147000 M⁻¹ s⁻¹ and the t1/2 amounted to 96 min. Further, the stoichiometry N in assay [5] turned out to be 3.

Source of the values: article PMC4880302.
